From patent publication US20140289906A1, “Compositions Having Dicamba Decarboxylase Activity and Methods of Use” (priority 2013, published 2014)
Where a chain is given by its changes, count along the chain named.

B1: 56 (protein)
chain: MAKIICLEEHYLDSELGRACMPVALEQAPFLGDWGKTVADGHNPDRSRPQIEKNALINAKGADLGSRRLRDMDEAGITLQILSVGGFPQLAPEDEAVTLNTAANDRLAEAVRNHPDRFAAFATLPWAQPKDAENELVRAVEKLGFKGALLNGRPSSCFLDHPDYDSLLSRFNKLNVPLYLHPGLPLKSVQQAYFTGFSAEVNARLSMFGWGWHHEAGIHLLRLMLSGAFDKYPNMQVISGHWGEMLPFWLQRLDDSLPLAATGLSRTLTRTFQEHVYVTPSGMLTLPHFKFIYELMGAERILFSVDYPYQTLDGVKTFIDSLPVNKAEKEAIAFRNAERLLGITA
modifications: Enterobacter aerogenes
B2: 58 (protein)
chain: MARVIALEEHYATTEFLRGPGTWLASRPGIVEPAGDLGDGRIAAMDQAGVDLAVLSLAAPGVEQLDPDDAVRLARDCNDQLAAAVRRYPDRLAGFATVPTSAPDRAADELERAVRGLGFPGAVINGHSRGRYLDDPFFEPVLARAAELQAPIYLHPTIPPAGVIESSYAGFAEPVTFALATVGWGWHINTATHALRMILGGVFDRHPSLQMIIGHMGEATSFMLPRFDATLKPELTGLNHPVSSYLRENFHYTFANFNDHATYANLVAQVGIERVAFSADYPFGSMVDARAFLDGLPLSDDERAAISHRNAEKLLGL
modifications: Mycobacterium colombiense
B3: 50 (protein, listed as Streptomyces sp.)
chain: MARIVTLEEHWTDPAVTAAGMPNLLDHVPGYAAAFDPDTGMPYPRHPELLEDLGAARIADMDRHGITTQVLSLVNTFLPADVAPRLTAAANDAMAAAVEAFPGRFAAFATLPTAVPGAAADELRRCVGELGFVGTMIMGRTDGEFLDQPRFDPILRAASDLSVPVYLHPAPPPVAVSEASYAGGLSPAVSAAFRLAAWGWHQETAVHLLHLVLAGVLDRYPGLQFVLGHWGEFIPFYLDRLDESMPRRMTGLDRTFREYFRDNVFITPSGMFSQAQLRYCADTVGTDRIIHSVDFPMLGNEGAVSFLTDSHLSREDQEKIAHGNADALLGLG
B4: 51 (protein, listed as Mycobacterium gilvum)
chain: MARVIAIEEHYAHPGLQPAEALANLRKHPQLARIQDKLEDLGAGRLADMDAAGIDMQVLSHTVPGAEALPAAQAVDVVRQTNDDLAEVIAAHPDRFAGFAALPMRDPQAAATELQRAVGTLGFCGAMINGLIEGRFLDHPDFTPLLSTAADLGVPLYLHPSFPPPQVAQIYFGGLPPVLADLLATAGWGWHAETALHVLRLISTGVFDRLPELRVIVGHMGEMIPFALARIDTVLSPMTELRQPVAQYFQTNVWFTTSGYTTFPPLQCALSTVGIDRLIFSVDYPYTDNASARALLDTAPISPVDREKLAHATVEALLRV
B5: 52 (protein, listed as Streptomyces sp.)
chain: MAKIIALEEHFSDPAVAKAGAARAQALSPGFAASYSPASGLPYSPSPEVLENLAEKRLADMDAGGITMQVLSGLSAQTVPADVAPALVAGSNDKAAAAVRAHPDRFAAFAALPTAAPEAAVAELDRSVNELGFVGTLIMGRTEGEFLDAPRFEPILARAAALKVPVFLHPGVPPREITDSNYAAGLPTGIGTRLQTAAWGWHQETAVHFLHLVHSGVLDRYPDLQFILGHWGETIPFYLDRVDEALPQRATGLDRSFHEYFRENVYLAPSGMWSQAQLRFCLETFPLERIVFAVDYPFIGNEGAVPFLEKAELPEADKRKIAHENAERLLGL
B6: 54 (protein, listed as Streptomyces sp.)
chain: B5 chain with S75G, V128I, D223G, T234M, F285V
B7: 53 (protein, listed as Granulicella tundricola)
chain: MARTITLEEHFVTDSFLRATGAYDKPAPPWLAQLQPKLLDLGDGRIAAMDEAGIDLQVLSLAALGFDALDAATATPLVHDINDELAAAVRANPTRLAAFASLALKDPQSAARELERAIQKLGFRGVLLDGTTDGLFLDDPRFTPVFEAAVALNVPIYLHPAPPPESVFDTYFTGLPEGVGQMLSIAGWGWHAETALHTLRLITNGVFDRYPTLQLIIGHMGEMLPMALARTSKALSHAARLRQPVAAYFQSNIHLTTSGYFTQPPLRCALDVVGIDRLMFSIDYPFSANTLGRDYLTELEQTLTPEDLAKLIHRNAESLLNLS
B8: 57 (protein)
chain: MAKLICVEEHVLDPAVGAATQSLVRAEAPYLPDWGSRVLDGRHVADRSRPHVIAPSESARKALEMGEPRLADMDAASIDMQVLSYGGFPQLLPAAQAIDLNRAANDKLALAAQAHPARFAGFATLPWQAPEAAARELERAVKQLGLKGALINGRPGDTFLDDARYAPILAAFDELKVPLYVHPGLPLPAVQAPYYGGFERELSARLAMFAWGWHNEAGIQVVRMLLAGVFDRHPRLQLISGHWGEMVPFFLQRLEDSIPQEASGLQRPIVQTYREHVYISPSGMFTLPHFQFIHALMGAQRILYSIDYPYQSLDGARAFIERLPISDTDKALIAHRNAERLLHL
modifications: Collimonas fungivorans
B9: 2 (protein, listed as Serratia sp.)
chain: MAKIICLEEHTLDKALVMASMPAALEQAPFLSDWGKTVTDGNLPDRSRPQIEKNDLINIKGADIGRGRLDDMDVAGITMQVLSVGGFPHLISAAEGVDLNRAANDRLADAVNAHPDRFAAFATLPWAQPDSAEKELERAVKELGFKGALLNGRPSTHFLDHPDYDGLLARFNALGVPLYLHPGLPVRSVQQAYYGGFSDEVTARLSMFGWGWHHEAGIHLLRLILSGAFDKYPNLQVISGHWGEMLPFWLQRLDDSLPQAATGLRRTIAQTFKEQVYVTPSGMLTLPHFQFIYALLGAERIIFSVDYPYQTLDGVKAFIQSLPVPEEAKEAIAFRNAERLLGLTS
B10: 55 (protein, listed as Serratia sp.)
chain: B9 chain

assay: 14C assay: 14CO2 capture from [14C]-carboxyl-labeled dicamba with IPTG-induced recombinant E. coli cells; conditions: IPTG-induced recombinant E. coli cells; 14CO2 from [14C]-carboxyl-labeled dicamba

Molecule | Dicamba Decarboxylase Activity
B1 | High
B2 | High
B3 | High
B4 | High
B5 | High
B6 | High
B7 | High
B8 | High
B9 | High
B10 | High

same assay, conditions: among the 108 sequences tested; recombinant E. coli cell assay

Molecule | decarboxylation activity of dicamba
B1 | showed decarboxylation activity of dicamba
B2 | showed decarboxylation activity of dicamba
B3 | showed decarboxylation activity of dicamba
B4 | showed decarboxylation activity of dicamba
B5 | showed decarboxylation activity of dicamba
B6 | showed decarboxylation activity of dicamba
B7 | showed decarboxylation activity of dicamba
B8 | showed decarboxylation activity of dicamba
B9 | showed decarboxylation activity of dicamba
B10 | showed decarboxylation activity of dicamba

same assay, conditions: dicamba decarboxylation activity

Molecule | Enzymatic Detection level
B1 | High
B2 | High
B3 | High
B4 | High
B5 | High
B6 | High
B7 | High
B8 | High
B9 | High
B10 | High
